Measured values reported in US20200190171A1 (FAIRBANKS PHARMACEUTICALS, published 2020).

How the values were obtained:
[1] = target: T1, human Follistatin-like-3 (FSTL3) protein, 6-His tagged (human, UniProt O95633 27-263, limits assumed); test: Western blot
T1 construct: Made in-house as a secreted protein from stably transfected 293 cells; also called hFSTL3; human FSTL3; not shown: 6-His tag
T1 sequence (looked up): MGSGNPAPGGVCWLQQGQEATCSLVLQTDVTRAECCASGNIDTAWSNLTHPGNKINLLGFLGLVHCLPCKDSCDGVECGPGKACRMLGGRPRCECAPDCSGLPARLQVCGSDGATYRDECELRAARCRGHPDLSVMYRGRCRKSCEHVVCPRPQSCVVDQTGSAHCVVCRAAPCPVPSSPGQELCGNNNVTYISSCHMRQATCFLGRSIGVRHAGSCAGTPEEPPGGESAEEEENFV
Procedure: (§1) Secondary antibody (donkey anti-mouse IgG-Horse Radish Peroxidase label) was purchased from Jackson Immuno Research in West Grove Pa. Human FSTL3 was produced by Fairbanks Pharmaceuticals by cloning the human FSTL3 cDNA into an expression plasmid containing a 6-His tag. 293 cells were transfected with this plasmid and stable colonies selected. Cells were grown for 7-14 days, medium collected, and FSTL3 was purified on Nickel-Sepharose-Sephadex Beads (GE Healthcare Life Sciences, Pittsburgh Pa. Ligands: activin A (Cat No:338-AC-050), activin B (Cat No:659-AB-005), and MSTN (Cat No:788-68-010) were purchased from R&D Systems (Minneapolis, Minn.). GDF11 (Cat No:TP723130), was purchased from Origene (Rockville Md.)
(§2) Direct binding studies were conducted by performing Western blot, a technique well known in the art. Pre-determined doses of human FSTL3 (hFSTL3) or mouse FSTL3 (mFSTL3), that are easily detectable at the end of experimentation, were loaded onto SDS gels (10% NuPage gels). After electrophoresis, proteins were transferred to PVDF membranes and then tested with the selected and purified anti-hFSTL3 antibodies from FIG. 3.

mouse FSTL3 = target: T2, mouse FSTL3 (mouse, UniProt Q9EQC7 24-256, limits assumed); test: Western blot
T2 construct: also called mFSTL3
T2 sequence (looked up): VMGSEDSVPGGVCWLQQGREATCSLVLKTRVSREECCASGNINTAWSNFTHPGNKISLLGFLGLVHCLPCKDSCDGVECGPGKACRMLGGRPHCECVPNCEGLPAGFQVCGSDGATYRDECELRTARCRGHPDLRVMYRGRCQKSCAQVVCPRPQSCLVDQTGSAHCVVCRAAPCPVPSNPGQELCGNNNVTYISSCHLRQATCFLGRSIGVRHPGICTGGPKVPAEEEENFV
Procedure: as §1, §2

B1: FP-102 anti-hFSTL3 monoclonal antibody (antibody, V domains shown)
VH: QVKLQQPGAELVKPGASVKLSCKASGYTFTSYWMHWVNQRPGQGLEWIGEINPGNGRTNYNEKFKSKATLTVDKSSSTAYMQLSSLTSEDSAVYFCARWLLPRGPMDYWGQGTSVTVSS
VL: DIVLTQSQKFMSTSVGDRVSVTCKASQNVGTNVAWYQQKPGQSPQGLIYSASYRYSGVPDRFTGSGSGTDFTLTISNVQSEDLAEYFCQQYNSYPLTFGAGTKLELKR
notes: Murine monoclonal from Balb-C mice; also called clone 33
B1: binds [1]; binds (mouse FSTL3).
